According to patent publication US20250092426, “CAS ENDONUCLEASES AND RELATED METHODS” (Flagship Pioneering Innovations VII, LLC, published 2025):

Biological target: T1, CasEnd-37 (synthetic construct)
T1 chain: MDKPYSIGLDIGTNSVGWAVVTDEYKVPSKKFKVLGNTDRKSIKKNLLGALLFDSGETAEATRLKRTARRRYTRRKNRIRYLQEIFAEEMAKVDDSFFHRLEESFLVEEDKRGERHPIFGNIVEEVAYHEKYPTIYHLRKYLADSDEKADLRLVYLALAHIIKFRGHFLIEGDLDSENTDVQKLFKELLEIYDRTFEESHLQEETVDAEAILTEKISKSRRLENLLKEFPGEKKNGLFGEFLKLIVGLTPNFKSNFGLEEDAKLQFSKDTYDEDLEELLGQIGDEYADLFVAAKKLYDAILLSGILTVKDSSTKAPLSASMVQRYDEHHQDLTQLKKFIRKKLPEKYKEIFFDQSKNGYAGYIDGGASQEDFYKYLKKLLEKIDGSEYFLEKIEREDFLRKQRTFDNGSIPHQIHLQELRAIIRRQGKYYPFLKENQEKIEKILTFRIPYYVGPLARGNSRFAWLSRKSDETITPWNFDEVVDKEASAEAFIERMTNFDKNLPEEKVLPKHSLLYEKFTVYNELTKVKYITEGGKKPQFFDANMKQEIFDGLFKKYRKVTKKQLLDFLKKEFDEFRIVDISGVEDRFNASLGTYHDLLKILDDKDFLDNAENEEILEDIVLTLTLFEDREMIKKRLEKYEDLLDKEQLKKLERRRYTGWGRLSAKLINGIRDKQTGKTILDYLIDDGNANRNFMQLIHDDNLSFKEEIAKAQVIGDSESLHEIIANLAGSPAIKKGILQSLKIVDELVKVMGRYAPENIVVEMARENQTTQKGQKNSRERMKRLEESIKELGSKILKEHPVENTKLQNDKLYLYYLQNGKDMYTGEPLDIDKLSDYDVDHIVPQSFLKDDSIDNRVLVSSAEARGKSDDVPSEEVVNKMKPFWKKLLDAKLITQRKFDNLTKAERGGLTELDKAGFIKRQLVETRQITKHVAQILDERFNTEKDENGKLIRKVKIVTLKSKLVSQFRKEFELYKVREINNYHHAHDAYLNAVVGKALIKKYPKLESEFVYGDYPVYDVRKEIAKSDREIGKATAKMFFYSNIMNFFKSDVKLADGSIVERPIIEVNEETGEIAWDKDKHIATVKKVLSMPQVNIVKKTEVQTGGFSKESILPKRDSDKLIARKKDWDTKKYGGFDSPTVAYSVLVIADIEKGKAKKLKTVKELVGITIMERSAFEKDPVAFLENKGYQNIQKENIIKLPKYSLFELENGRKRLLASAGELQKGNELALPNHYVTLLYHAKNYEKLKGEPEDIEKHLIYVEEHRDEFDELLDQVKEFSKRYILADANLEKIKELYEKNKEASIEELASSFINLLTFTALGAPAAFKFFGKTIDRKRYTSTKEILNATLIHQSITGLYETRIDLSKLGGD
Assay: cell_activity; +++; HEK293T; PAM not stated
How it was run: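 Editing activity was scored as the fraction of GFP+ cells on day 4 by flow cytometry. BFP-expressing HEK293T cells (250,000) received by nucleofection 200 ng plasmid for the RT-Cas fusion protein and 200 ng template RNA plasmid designed to convert BFP to GFP.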

B1: BFP-to-GFP template RNA ; BFP reporter protospacer (ssRNA ; dsDNA)
RNA: GCCGAAGCACUGCACGCCGUGUUUUAGAGCUAGAAAUAGCAAGUUAAAAUAAGGCUAGUCCGUUAUCAACUUGAAAAAGUGGCACCGAGUCGGUGCACCCUGACGUACGGCGUGCAGUGCUU
DNA 1: GCCGAAGCACTGCACGCCGT
DNA 2: ACGGCGTGCAGTGCTTCGGC
activity: ≥ 100 % of reference
